PMC2668917

Molecular target: GST-tagged Nup358-IR (Nup358 internal repeat/E3 ligase domain) (UniProt P49792)
Test: SPR

Kd [nM]	Substance
36	SUMO-2 modified His-RanGAP1-NΔ419 (from UniProt P46061 420-589; P55854 1-92)
7	SUMO-1 modified His-RanGAP1-NΔ419 (from UniProt P46061 420-589; P63165 1-97)
20	SUMO-1/2 chimera modified His-RanGAP1-NΔ419 (from UniProt P46061 420-589; P63165 1-30; P55854 26-46; P63165 52-97)
